Assay results: patent US20150087577A1 (POLYPHOR, published 2015)
Bridges are numbered along the chain shown (N, C = ends). Primed or numbered codes have the meaning given here. [ ]: non-standard residue; d: D form. 2Nal = N[C@@H](Cc1ccc2ccccc2c1)C(=O)O; Cit = NC(=O)NCCC[C@H](N)C(=O)O; Dab = NCC[C@H](N)C(=O)O; Pip′ = not defined here

Molecular target: human CXCR4 (human, UniProt P61073 1-352)
Assay: cell-based or functional assay

human CXCR4, sequence (P61073 whole entry): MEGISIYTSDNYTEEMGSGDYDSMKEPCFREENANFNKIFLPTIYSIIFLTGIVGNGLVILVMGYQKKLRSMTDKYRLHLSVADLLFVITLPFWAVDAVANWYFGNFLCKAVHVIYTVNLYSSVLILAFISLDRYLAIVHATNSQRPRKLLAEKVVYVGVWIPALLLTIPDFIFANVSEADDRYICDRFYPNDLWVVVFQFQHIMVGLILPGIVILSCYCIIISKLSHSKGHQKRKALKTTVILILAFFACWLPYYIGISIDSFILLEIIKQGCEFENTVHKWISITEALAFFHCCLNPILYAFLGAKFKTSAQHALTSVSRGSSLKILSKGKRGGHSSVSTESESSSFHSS

cyclo(RRWCYRKCYKGYCYRKCRG[dP]) (disulfide 8-13, 4-17) [Example 160]
IC50 (nM) Ca2+ assay (method 2): 0.38 nM

B1: Example 153 (peptide)
peptide: cyclo(YR[Cit]ERG[dP]RRW[Dab]Y[Cit]K[dP]P)
modifications: lactam 4-11
SMILES: N=C(N)NCCC[C@@H]1NC(=O)[C@@H]2CCC(=O)NCC[C@H](NC(=O)[C@H](Cc3c[nH]c4ccccc34)NC(=O)[C@H](CCCNC(=N)N)NC(=O)[C@H](CCCNC(=N)N)NC(=O)[C@H]3CCCN3C(=O)CNC1=O)C(=O)N[C@@H](Cc1ccc(O)cc1)C(=O)N[C@@H](CCCNC(N)=O)C(=O)N[C@@H](CCCCN)C(=O)N1CCC[C@@H]1C(=O)N1CCC[C@H]1C(=O)N[C@@H](Cc1ccc(O)cc1)C(=O)N[C@@H](CCCNC(=N)N)C(=O)N[C@@H](CCCNC(N)=O)C(=O)N2
IC50 (nM) Ca2+ assay (method 2): 21.9 nM

B2: Example 31 (peptide)
peptide: cyclo(YR[Cit]VR[Cit]PRR[2Nal]FY[Cit]K[dP]P)
SMILES: CC(C)[C@@H]1NC(=O)[C@H](CCCNC(N)=O)NC(=O)[C@H](CCCNC(=N)N)NC(=O)[C@H](Cc2ccc(O)cc2)NC(=O)[C@@H]2CCCN2C(=O)[C@H]2CCCN2C(=O)[C@H](CCCCN)NC(=O)[C@H](CCCNC(N)=O)NC(=O)[C@H](Cc2ccc(O)cc2)NC(=O)[C@H](Cc2ccccc2)NC(=O)[C@H](Cc2ccc3ccccc3c2)NC(=O)[C@H](CCCNC(=N)N)NC(=O)[C@H](CCCNC(=N)N)NC(=O)[C@@H]2CCCN2C(=O)[C@H](CCCNC(N)=O)NC(=O)[C@H](CCCNC(=N)N)NC1=O
IC50 (nM) Ca2+ assay (method 1): 1470 nM

B3: Example 149 (peptide)
peptide: cyclo(YR[Cit]CRG[dP]RRYCYQK[dQ]P)
modifications: disulfide 4-11
SMILES: N=C(N)NCCC[C@@H]1NC(=O)[C@@H]2CSSC[C@H](NC(=O)[C@H](Cc3ccc(O)cc3)NC(=O)[C@H](CCCNC(=N)N)NC(=O)[C@H](CCCNC(=N)N)NC(=O)[C@H]3CCCN3C(=O)CNC1=O)C(=O)N[C@@H](Cc1ccc(O)cc1)C(=O)N[C@@H](CCC(N)=O)C(=O)N[C@@H](CCCCN)C(=O)N[C@H](CCC(N)=O)C(=O)N1CCC[C@H]1C(=O)N[C@@H](Cc1ccc(O)cc1)C(=O)N[C@@H](CCCNC(=N)N)C(=O)N[C@@H](CCCNC(N)=O)C(=O)N2
IC50 (nM) Ca2+ assay (method 2): 1 nM

B4: Example 32 (peptide)
peptide: cyclo(YR[Cit]VRV[dP]RR[2Nal]FY[Cit]K[dP]P)
SMILES: CC(C)[C@@H]1NC(=O)[C@H](CCCNC(N)=O)NC(=O)[C@H](CCCNC(=N)N)NC(=O)[C@H](Cc2ccc(O)cc2)NC(=O)[C@@H]2CCCN2C(=O)[C@H]2CCCN2C(=O)[C@H](CCCCN)NC(=O)[C@H](CCCNC(N)=O)NC(=O)[C@H](Cc2ccc(O)cc2)NC(=O)[C@H](Cc2ccccc2)NC(=O)[C@H](Cc2ccc3ccccc3c2)NC(=O)[C@H](CCCNC(=N)N)NC(=O)[C@H](CCCNC(=N)N)NC(=O)[C@H]2CCCN2C(=O)[C@H](C(C)C)NC(=O)[C@H](CCCNC(=N)N)NC1=O
IC50 (nM) Ca2+ assay (method 1): 760 nM

B5: Example 147 (peptide)
peptide: cyclo(YRICRG[dP]RRYCYQK[dP]P)
modifications: disulfide 4-11
SMILES: CC[C@H](C)[C@@H]1NC(=O)[C@H](CCCNC(=N)N)NC(=O)[C@H](Cc2ccc(O)cc2)NC(=O)[C@@H]2CCCN2C(=O)[C@H]2CCCN2C(=O)[C@H](CCCCN)NC(=O)[C@H](CCC(N)=O)NC(=O)[C@H](Cc2ccc(O)cc2)NC(=O)[C@@H]2CSSC[C@H](NC1=O)C(=O)N[C@@H](CCCNC(=N)N)C(=O)NCC(=O)N1CCC[C@@H]1C(=O)N[C@@H](CCCNC(=N)N)C(=O)N[C@@H](CCCNC(=N)N)C(=O)N[C@@H](Cc1ccc(O)cc1)C(=O)N2
IC50 (nM) Ca2+ assay (method 2): 0.17 nM

B6: Example 151 (peptide)
peptide: cyclo(YR[Cit]SRG[dP]RRWNY[Cit]K[dP]P)
SMILES: N=C(N)NCCC[C@@H]1NC(=O)[C@H](CO)NC(=O)[C@H](CCCNC(N)=O)NC(=O)[C@H](CCCNC(=N)N)NC(=O)[C@H](Cc2ccc(O)cc2)NC(=O)[C@@H]2CCCN2C(=O)[C@H]2CCCN2C(=O)[C@H](CCCCN)NC(=O)[C@H](CCCNC(N)=O)NC(=O)[C@H](Cc2ccc(O)cc2)NC(=O)[C@H](CC(N)=O)NC(=O)[C@H](Cc2c[nH]c3ccccc23)NC(=O)[C@H](CCCNC(=N)N)NC(=O)[C@H](CCCNC(=N)N)NC(=O)[C@H]2CCCN2C(=O)CNC1=O
IC50 (nM) Ca2+ assay (method 2): 4.2 nM

B7: Example 25 (peptide)
peptide: cyclo(YR[Cit]VR[Cit][dP]RR[2Nal]VY[Cit]K[dP]P)
SMILES: CC(C)[C@@H]1NC(=O)[C@H](Cc2ccc3ccccc3c2)NC(=O)[C@H](CCCNC(=N)N)NC(=O)[C@H](CCCNC(=N)N)NC(=O)[C@H]2CCCN2C(=O)[C@H](CCCNC(N)=O)NC(=O)[C@H](CCCNC(=N)N)NC(=O)[C@H](C(C)C)NC(=O)[C@H](CCCNC(N)=O)NC(=O)[C@H](CCCNC(=N)N)NC(=O)[C@H](Cc2ccc(O)cc2)NC(=O)[C@@H]2CCCN2C(=O)[C@H]2CCCN2C(=O)[C@H](CCCCN)NC(=O)[C@H](CCCNC(N)=O)NC(=O)[C@H](Cc2ccc(O)cc2)NC1=O
IC50 (nM) Ca2+ assay (method 1): 1000 nM

cyclo(RR[2Nal]CY[Cit]KCYKGYCYR[Cit]CRG[dP]) (disulfide 8-13, 4-17) [Example 154]
IC50 (nM) Ca2+ assay (method 2): 9.3 nM

B8: Example 28 (peptide)
peptide: cyclo(YR[Cit]FRVPRR[2Nal]FY[Cit]K[dP]P)
SMILES: CC(C)[C@@H]1NC(=O)[C@H](CCCNC(=N)N)NC(=O)[C@H](Cc2ccccc2)NC(=O)[C@H](CCCNC(N)=O)NC(=O)[C@H](CCCNC(=N)N)NC(=O)[C@H](Cc2ccc(O)cc2)NC(=O)[C@@H]2CCCN2C(=O)[C@H]2CCCN2C(=O)[C@H](CCCCN)NC(=O)[C@H](CCCNC(N)=O)NC(=O)[C@H](Cc2ccc(O)cc2)NC(=O)[C@H](Cc2ccccc2)NC(=O)[C@H](Cc2ccc3ccccc3c2)NC(=O)[C@H](CCCNC(=N)N)NC(=O)[C@H](CCCNC(=N)N)NC(=O)[C@@H]2CCCN2C1=O
IC50 (nM) Ca2+ assay (method 1): 2680 nM

B9: Example 158 (peptide)
peptide: RRWCYQKGYXPYGYRXCRGP
modifications: D-Pro at P10; Cit at P16; disulfide Cys P4-Cys P17; backbone-cyclic via template Gly-LPro
IC50 (nM) Ca2+ assay (method 2): 250 nM

RRWCYQKGYXGYGYRXCRGX (Cit at P16; disulfide Cys P4-Cys P17; backbone-cyclic via template Gly-DPro) [Example 157]
IC50 (nM) Ca2+ assay (method 2): 11.3 nM

B10: Example 146 (peptide)
peptide: cyclo(YRTCRG[dP]RRYCY[Cit]K[dP]P)
modifications: disulfide 4-11
SMILES: C[C@@H](O)[C@@H]1NC(=O)[C@H](CCCNC(=N)N)NC(=O)[C@H](Cc2ccc(O)cc2)NC(=O)[C@@H]2CCCN2C(=O)[C@H]2CCCN2C(=O)[C@H](CCCCN)NC(=O)[C@H](CCCNC(N)=O)NC(=O)[C@H](Cc2ccc(O)cc2)NC(=O)[C@@H]2CSSC[C@H](NC1=O)C(=O)N[C@@H](CCCNC(=N)N)C(=O)NCC(=O)N1CCC[C@@H]1C(=O)N[C@@H](CCCNC(=N)N)C(=O)N[C@@H](CCCNC(=N)N)C(=O)N[C@@H](Cc1ccc(O)cc1)C(=O)N2
IC50 (nM) Ca2+ assay (method 2): 0.24 nM

B11: Example 148 (peptide)
peptide: cyclo(YRYCRG[dP]RRYCYQK[dP]P)
modifications: disulfide 4-11
SMILES: N=C(N)NCCC[C@@H]1NC(=O)[C@@H]2CSSC[C@H](NC(=O)[C@H](Cc3ccc(O)cc3)NC(=O)[C@H](CCCNC(=N)N)NC(=O)[C@H](CCCNC(=N)N)NC(=O)[C@H]3CCCN3C(=O)CNC1=O)C(=O)N[C@@H](Cc1ccc(O)cc1)C(=O)N[C@@H](CCC(N)=O)C(=O)N[C@@H](CCCCN)C(=O)N1CCC[C@@H]1C(=O)N1CCC[C@H]1C(=O)N[C@@H](Cc1ccc(O)cc1)C(=O)N[C@@H](CCCNC(=N)N)C(=O)N[C@@H](Cc1ccc(O)cc1)C(=O)N2
IC50 (nM) Ca2+ assay (method 2): 0.65 nM

B12: Example 52 (peptide)
peptide: cyclo(YR[Cit]CRGGRR[2Nal]CY[Cit]K[dP]P)
modifications: disulfide 4-11
SMILES: N=C(N)NCCC[C@@H]1NC(=O)CNC(=O)CNC(=O)[C@H](CCCNC(=N)N)NC(=O)[C@@H]2CSSC[C@H](NC(=O)[C@H](Cc3ccc4ccccc4c3)NC(=O)[C@H](CCCNC(=N)N)NC1=O)C(=O)N[C@@H](Cc1ccc(O)cc1)C(=O)N[C@@H](CCCNC(N)=O)C(=O)N[C@@H](CCCCN)C(=O)N1CCC[C@@H]1C(=O)N1CCC[C@H]1C(=O)N[C@@H](Cc1ccc(O)cc1)C(=O)N[C@@H](CCCNC(=N)N)C(=O)N[C@@H](CCCNC(N)=O)C(=O)N2
IC50 (nM) Ca2+ assay (method 1): 3.1 nM
IC50 (µM) Cell migration assay: 2.75 µM

B13: Example 152 (peptide)
peptide: cyclo(YR[Cit][Dab]RG[dP]RRWEY[Cit]K[dP]P)
modifications: lactam 4-11
SMILES: N=C(N)NCCC[C@@H]1NC(=O)[C@@H]2CCNC(=O)CC[C@H](NC(=O)[C@H](Cc3c[nH]c4ccccc34)NC(=O)[C@H](CCCNC(=N)N)NC(=O)[C@H](CCCNC(=N)N)NC(=O)[C@H]3CCCN3C(=O)CNC1=O)C(=O)N[C@@H](Cc1ccc(O)cc1)C(=O)N[C@@H](CCCNC(N)=O)C(=O)N[C@@H](CCCCN)C(=O)N1CCC[C@@H]1C(=O)N1CCC[C@H]1C(=O)N[C@@H](Cc1ccc(O)cc1)C(=O)N[C@@H](CCCNC(=N)N)C(=O)N[C@@H](CCCNC(N)=O)C(=O)N2
IC50 (nM) Ca2+ assay (method 2): 4.2 nM

RRYCYQKGYXPYGYRTCRGP (D-Pro at P10; disulfide Cys P4-Cys P17; backbone-cyclic via template Gly-LPro) [Example 159]
IC50 (nM) Ca2+ assay (method 2): 118 nM

cyclo(RRWCYQKCYKGYCYR[Cit]CRG[dP]) (disulfide 8-13, 4-17) [Example 155]
IC50 (nM) Ca2+ assay (method 2): 0.46 nM

RRWCYQKGYKGYGYRXCRGX (Cit at P16; disulfide Cys P4-Cys P17; backbone-cyclic via template Gly-DPro) [Example 156]
IC50 (nM) Ca2+ assay (method 2): 49 nM

cyclo([Pip′]RYCYQK[dP]PYR[Cit]CRG[dP]) (disulfide 4-13) [Example 150]
IC50 (nM) Ca2+ assay (method 2): 1.4 nM
